What was measured:
[1] = tested on: NC(=O)c1cnccn1; experiment: steady-state kinetics (Km), GDH-coupled spectrophotometric assay; format: biochemical, Oceanobacillus iheyensis
[2] = tested on: NC(=O)c1cccnc1; experiment: as above; format: biochemical, Oceanobacillus iheyensis; conditions: Zn2+ active site
[3] = molecular target: T1, nicotinamidase (OiNIC) (Oceanobacillus iheyensis, UniProt Q8ESQ6)
T1 construct: gene OB0565
T1 sequence (Q8ESQ6 1-183): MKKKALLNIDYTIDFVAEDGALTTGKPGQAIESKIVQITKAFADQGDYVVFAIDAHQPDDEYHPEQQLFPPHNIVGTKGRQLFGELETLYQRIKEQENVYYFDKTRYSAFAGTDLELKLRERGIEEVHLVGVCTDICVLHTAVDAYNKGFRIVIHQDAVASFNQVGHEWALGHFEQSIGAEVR

[4] = substrate: Cc1cncc(C(N)=O)c1; experiment: steady-state kinetics (Km), GDH-coupled spectrophotometric assay; format: biochemical, Oceanobacillus iheyensis; conditions: Zn2+
[5] = substrate: NC(=O)c1cnccn1; experiment: as above; format: biochemical, Oceanobacillus iheyensis; conditions: Zn2+ active site
[6] = substrate: CCOC(=O)c1cccnc1; experiment: steady-state kinetics (Km), HPLC; format: biochemical, Oceanobacillus iheyensis; conditions: Zn2+
[7] = substrate: COC(=O)c1cccnc1; experiment: steady-state kinetics (Km), HPLC; format: biochemical, Oceanobacillus iheyensis; conditions: Zn2+
[8] = substrate: NC(=O)c1cccnc1; experiment: steady-state kinetics (Km), HPLC and GDH-coupled assay; format: biochemical, Oceanobacillus iheyensis; conditions: Zn2+ active site

Molecule: nicotinamidase (OiNIC) (Oceanobacillus iheyensis HTE831; F69W)
- Km ([1]; Zn2+ active site cavity): 500 ± 20 µM
- kcat ([1]; Zn2+ active site cavity): 3.94 ± 0.1 s⁻¹
- kcat/Km ([1]; Zn2+ active site cavity): 7900 M⁻¹ s⁻¹

Molecule: nicotinamidase (OiNIC) (Oceanobacillus iheyensis HTE831; E65H)
- Km [2]: 130 ± 10 µM
- kcat [2]: 5.63 ± 0.2 s⁻¹
- kcat/Km [2]: 42600 M⁻¹ s⁻¹

Molecule: O=Cc1cccnc1 [nicotinaldehyde]
- Ki [3]: 3.4 µM

Molecule: nicotinamidase (OiNIC) (Oceanobacillus iheyensis HTE831; C133A)
- Km ([1]; Zn2+ active site): 360 ± 20 µM
- kcat ([1]; Zn2+ active site): 3.31 ± 0.1 s⁻¹
- kcat/Km ([1]; Zn2+ active site): 9190 M⁻¹ s⁻¹

B1: nicotinamidase (OiNIC) (Oceanobacillus iheyensis HTE831) (protein)
chain: MKKKALLNIDYTIDFVAEDGALTTGKPGQAIESKIVQITKAFADQGDYVVFAIDAHQPDDEYHPEQQLFPPHNIVGTKGRQLFGELETLYQRIKEQENVYYFDKTRYSAFAGTDLELKLRERGIEEVHLVGVCTDICVLHTAVDAYNKGFRIVIHQDAVASFNQVGHEWALGHFEQSIGAEVR
- Km [4]: 680 ± 20 µM
- kcat [4]: 5.1 ± 0.02 s⁻¹
- kcat/Km [4]: 7500 M⁻¹ s⁻¹
- Km [5]: 810 ± 10 µM
- kcat [5]: 2.6 ± 0.1 s⁻¹
- kcat/Km [5]: 3200 M⁻¹ s⁻¹
- Km [6]: 1020 ± 10 µM
- kcat [6]: 0.1 ± 0.01 s⁻¹
- kcat/Km [6]: 100 M⁻¹ s⁻¹
- Km [7]: 1030 ± 10 µM
- kcat [7]: 0.32 ± 0.02 s⁻¹
- kcat/Km [7]: 310 M⁻¹ s⁻¹
- Km [8]: 260 ± 20 µM
- kcat [8]: 11.65 ± 0.1 s⁻¹
- kcat/Km [8]: 43500 M⁻¹ s⁻¹
